Experimental data published in US20170335317.

What was measured:
[1] = target: ATRX full length (UniProt P46100); assay: filter
[2] = target: ATRX full length (UniProt P46100); assay: FP

Sequence of UniProt P46100 (P46100 whole entry): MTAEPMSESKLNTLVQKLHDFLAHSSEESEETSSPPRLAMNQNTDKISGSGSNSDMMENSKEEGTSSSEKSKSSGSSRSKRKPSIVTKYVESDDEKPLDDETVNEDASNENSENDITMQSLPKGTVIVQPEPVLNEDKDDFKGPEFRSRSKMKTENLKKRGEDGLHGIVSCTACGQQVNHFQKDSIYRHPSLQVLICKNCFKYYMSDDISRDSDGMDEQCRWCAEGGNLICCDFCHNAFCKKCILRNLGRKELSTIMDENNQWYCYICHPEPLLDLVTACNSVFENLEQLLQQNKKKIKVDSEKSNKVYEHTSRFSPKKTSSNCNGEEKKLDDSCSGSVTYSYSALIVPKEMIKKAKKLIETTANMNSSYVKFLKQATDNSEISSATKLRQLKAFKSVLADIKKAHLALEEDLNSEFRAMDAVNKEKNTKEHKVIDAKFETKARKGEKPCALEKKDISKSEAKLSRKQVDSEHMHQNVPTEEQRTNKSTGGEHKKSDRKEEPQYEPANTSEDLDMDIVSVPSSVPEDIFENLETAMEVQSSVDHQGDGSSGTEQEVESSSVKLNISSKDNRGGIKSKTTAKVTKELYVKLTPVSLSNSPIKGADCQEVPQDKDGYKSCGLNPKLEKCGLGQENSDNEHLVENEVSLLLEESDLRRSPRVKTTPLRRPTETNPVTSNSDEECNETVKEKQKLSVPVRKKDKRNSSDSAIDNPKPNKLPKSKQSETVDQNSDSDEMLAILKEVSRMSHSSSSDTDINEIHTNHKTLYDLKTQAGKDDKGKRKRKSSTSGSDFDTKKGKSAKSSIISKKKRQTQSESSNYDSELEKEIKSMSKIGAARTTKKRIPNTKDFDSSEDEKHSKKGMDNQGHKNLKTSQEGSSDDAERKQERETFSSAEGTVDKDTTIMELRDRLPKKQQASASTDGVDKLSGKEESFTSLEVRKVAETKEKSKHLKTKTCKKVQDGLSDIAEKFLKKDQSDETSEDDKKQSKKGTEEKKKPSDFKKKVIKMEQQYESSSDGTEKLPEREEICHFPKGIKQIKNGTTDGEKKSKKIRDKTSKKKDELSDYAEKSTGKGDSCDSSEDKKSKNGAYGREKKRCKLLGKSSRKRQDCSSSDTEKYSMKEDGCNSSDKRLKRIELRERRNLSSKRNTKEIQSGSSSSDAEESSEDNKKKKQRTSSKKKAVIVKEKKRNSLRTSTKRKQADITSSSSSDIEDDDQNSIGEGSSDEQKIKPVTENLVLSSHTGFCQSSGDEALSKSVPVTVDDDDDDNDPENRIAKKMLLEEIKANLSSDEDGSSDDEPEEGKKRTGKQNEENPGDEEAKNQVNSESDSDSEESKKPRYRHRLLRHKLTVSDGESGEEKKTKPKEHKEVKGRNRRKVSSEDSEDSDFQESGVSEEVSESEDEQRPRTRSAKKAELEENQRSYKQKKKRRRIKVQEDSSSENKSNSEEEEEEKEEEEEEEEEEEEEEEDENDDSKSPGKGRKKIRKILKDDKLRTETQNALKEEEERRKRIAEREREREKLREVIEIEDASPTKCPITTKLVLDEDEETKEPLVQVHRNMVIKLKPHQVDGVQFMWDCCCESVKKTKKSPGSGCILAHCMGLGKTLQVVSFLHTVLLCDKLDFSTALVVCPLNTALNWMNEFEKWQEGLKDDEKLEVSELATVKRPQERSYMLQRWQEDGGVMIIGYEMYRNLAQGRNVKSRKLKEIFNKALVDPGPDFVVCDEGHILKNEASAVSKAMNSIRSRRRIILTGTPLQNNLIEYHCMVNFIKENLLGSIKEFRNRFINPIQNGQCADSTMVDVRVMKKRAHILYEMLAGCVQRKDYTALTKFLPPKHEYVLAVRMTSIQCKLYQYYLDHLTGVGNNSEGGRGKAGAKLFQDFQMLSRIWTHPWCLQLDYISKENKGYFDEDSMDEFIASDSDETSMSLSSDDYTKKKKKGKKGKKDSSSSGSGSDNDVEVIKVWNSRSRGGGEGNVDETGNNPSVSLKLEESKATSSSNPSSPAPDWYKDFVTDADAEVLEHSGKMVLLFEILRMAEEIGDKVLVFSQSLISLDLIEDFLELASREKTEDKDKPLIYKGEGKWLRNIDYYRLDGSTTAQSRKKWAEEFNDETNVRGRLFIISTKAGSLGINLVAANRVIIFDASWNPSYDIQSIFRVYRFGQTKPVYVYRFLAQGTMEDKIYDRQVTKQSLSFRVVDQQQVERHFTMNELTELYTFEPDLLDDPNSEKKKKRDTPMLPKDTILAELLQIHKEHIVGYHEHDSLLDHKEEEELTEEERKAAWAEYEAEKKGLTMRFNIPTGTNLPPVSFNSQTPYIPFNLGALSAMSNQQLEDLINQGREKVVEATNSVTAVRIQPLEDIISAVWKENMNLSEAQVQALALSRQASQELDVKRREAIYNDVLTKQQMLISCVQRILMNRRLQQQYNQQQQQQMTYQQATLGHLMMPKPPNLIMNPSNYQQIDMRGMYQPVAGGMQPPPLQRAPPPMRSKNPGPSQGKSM

## Repeat A III-IV RNA
[1]; +/-3.35, double-filter binding
  Kd: 17.9 nM

## Repeat A dsDNA
[1]; unit not printed with value, nM by context
  Kd: 15.7 nM

## Repeat A ssDNA
[1]; could not bind well, Kd>>200 nM
  Kd: > 200 nM

## P4-P6 ribozyme RNA
[1]; Kd>>200 nM
  Kd: > 200 nM

## Repeat A I-II RNA
[1]; +/-0.89, double-filter binding
  Kd: 9.96 nM

## Hotair dsDNA
[1]; Kd>>200 nM
  Kd: > 200 nM

## Xist Repeat A I-IV RNA
[2]
  Kd: 5.41 nM

## MBP dsDNA
[1]; Kd>>200 nM
  Kd: > 200 nM

## MBP mRNA first 300 nt
[1]; Kd>>200 nM
  Kd: > 200 nM
